# Reference: IntAct's records for PubMed 25910212
# B1: U4/U6 small nuclear ribonucleoprotein Prp3 (Homo sapiens), O43395 (parent)
# chain: MALSKRELDELKPWIEKTVKRVLGFSEPTVVTAALNCVGKGMDKKKAADHLKPFLDDSTLRFVDKLFEAVEEGRSSRHSKSSSDRSRKRELKEVFGDDSEISKESSGVKKRRIPRFEEVEEEPEVIPGPPSESPGMLTKLQIKQMMEAATRQIEERKKQLSFISPPTPQPKTPSSSQPERLPIGNTIQPSQAATFMNDAIEKARKAAELQARIQAQLALKPGLIGNANMVGLANLHAMGIAPPKVELKDQTKPTPLILDEQGRTVDATGKEIELTHRMPTLKANIRAVKREQFKQQLKEKPSEDMESNTFFDPRVSIAPSQRQRRTFKFHDKGKFEKIAQRLRTKAQLEKLQAEISQAARKTGIHTSTRLALIAPKKELKEGDIPEIEWWDSYIIPNGFDLTEENPKREDYFGITNLVEHPAQLNPPVDNDTPVTLGVYLTKKEQKKLRRQTRREAQKELQEKVRLGLMPPPEPKVRISNLMRVLGTEAVQDPTKVEAHVRAQMAKRQKAHEEANAARKLTAEQRKVKKIKKLKEDISQGVHISVYRVRNLSNPAKKFKIEANAGQLYLTGVVVLHKDVNVVVVEGGPKAQKKFKRLMLHRIKWDEQTSNTKGDDDEESDEEAVKKTNKCVLVWEGTAKDRSFGEMKFKQCPTENMAREHFKKHGAEHYWDLALSESVLESTD
# partner: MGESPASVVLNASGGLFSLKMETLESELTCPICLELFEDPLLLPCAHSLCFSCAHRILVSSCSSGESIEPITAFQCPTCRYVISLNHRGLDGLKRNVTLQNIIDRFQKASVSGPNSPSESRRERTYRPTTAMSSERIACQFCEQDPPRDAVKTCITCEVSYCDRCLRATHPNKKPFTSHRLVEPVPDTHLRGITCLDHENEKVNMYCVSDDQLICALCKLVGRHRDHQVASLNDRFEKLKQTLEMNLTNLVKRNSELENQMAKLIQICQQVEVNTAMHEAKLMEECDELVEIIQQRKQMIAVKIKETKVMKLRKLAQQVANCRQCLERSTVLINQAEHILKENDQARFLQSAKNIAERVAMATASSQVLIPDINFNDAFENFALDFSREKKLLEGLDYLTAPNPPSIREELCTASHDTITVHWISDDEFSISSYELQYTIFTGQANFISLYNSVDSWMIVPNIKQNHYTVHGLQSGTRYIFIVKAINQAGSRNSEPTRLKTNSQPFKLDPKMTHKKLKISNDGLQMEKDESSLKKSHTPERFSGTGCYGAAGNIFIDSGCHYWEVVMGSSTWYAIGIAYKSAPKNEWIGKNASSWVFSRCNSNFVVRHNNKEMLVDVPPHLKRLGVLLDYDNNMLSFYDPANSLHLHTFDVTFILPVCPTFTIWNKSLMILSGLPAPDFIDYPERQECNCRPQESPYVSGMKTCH
# B2: ATP synthase mitochondrial F1 complex assembly factor 2 (Homo sapiens), Q8N5M1 (parent)
# chain: MWRSCLRLRDGGRRLLNRPAGGPSASMSPGPTIPSPARAYAPPTERKRFYQNVSITQGEGGFEINLDHRKLKTPQAKLFTVPSEALAIAVATEWDSQQDTIKYYTMHLTTLCNTSLDNPTQRNKDQLIRAAVKFLDTDTICYRVEEPETLVELQRNEWDPIIEWAEKRYGVEISSSTSIMGPSIPAKTREVLVSHLASYNTWALQGIEFVAAQLKSMVLTLGLIDLRLTVEQAVLLSRLEEEYQIQKWGNIEWAHDYELQELRARTAAGTLFIHLCSESTTVKHKLLKE
# partner: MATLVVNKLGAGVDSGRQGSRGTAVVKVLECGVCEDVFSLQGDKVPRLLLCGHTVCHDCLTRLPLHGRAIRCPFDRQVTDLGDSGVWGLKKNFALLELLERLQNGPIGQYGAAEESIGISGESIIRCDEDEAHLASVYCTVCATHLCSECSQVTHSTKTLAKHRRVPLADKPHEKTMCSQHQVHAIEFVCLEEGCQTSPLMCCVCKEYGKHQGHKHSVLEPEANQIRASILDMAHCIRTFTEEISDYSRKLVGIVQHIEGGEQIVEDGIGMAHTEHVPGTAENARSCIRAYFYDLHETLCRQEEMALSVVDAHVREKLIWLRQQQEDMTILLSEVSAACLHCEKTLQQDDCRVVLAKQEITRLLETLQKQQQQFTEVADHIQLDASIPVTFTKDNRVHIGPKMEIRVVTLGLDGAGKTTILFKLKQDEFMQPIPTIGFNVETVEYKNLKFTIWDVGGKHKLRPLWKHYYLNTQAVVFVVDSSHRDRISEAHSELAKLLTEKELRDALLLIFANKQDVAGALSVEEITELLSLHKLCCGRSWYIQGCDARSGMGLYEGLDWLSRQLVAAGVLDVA
# B3: ATP synthase mitochondrial F1 complex assembly factor 2 (Homo sapiens), Q8N5M1 (parent)
# chain: B2 chain
# partner: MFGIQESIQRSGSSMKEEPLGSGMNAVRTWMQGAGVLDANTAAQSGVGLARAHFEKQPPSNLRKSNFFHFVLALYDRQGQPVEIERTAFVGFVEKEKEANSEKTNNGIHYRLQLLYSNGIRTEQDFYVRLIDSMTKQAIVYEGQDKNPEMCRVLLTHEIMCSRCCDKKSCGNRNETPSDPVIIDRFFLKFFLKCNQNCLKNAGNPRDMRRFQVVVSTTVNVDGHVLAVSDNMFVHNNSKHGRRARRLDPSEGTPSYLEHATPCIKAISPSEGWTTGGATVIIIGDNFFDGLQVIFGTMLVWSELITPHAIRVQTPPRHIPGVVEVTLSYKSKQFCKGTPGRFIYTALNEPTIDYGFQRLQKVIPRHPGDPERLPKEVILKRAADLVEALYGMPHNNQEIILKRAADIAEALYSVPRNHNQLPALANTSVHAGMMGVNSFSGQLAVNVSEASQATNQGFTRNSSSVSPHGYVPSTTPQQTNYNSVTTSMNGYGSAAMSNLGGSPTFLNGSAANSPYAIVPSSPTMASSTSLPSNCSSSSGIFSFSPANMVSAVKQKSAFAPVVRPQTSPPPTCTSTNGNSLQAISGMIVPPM
# B4: Beta-crystallin A4 (Homo sapiens), P53673 (parent)
# chain: MTLQCTKSAGPWKMVVWDEDGFQGRRHEFTAECPSVLELGFETVRSLKVLSGAWVGFEHAGFQGQQYILERGEYPSWDAWGGNTAYPAERLTSFRPAACANHRDSRLTIFEQENFLGKKGELSDDYPSLQAMGWEGNEVGSFHVHSGAWVCSQFPGYRGFQYVLECDHHSGDYKHFREWGSHAPTFQVQSIRRIQQ
# partner: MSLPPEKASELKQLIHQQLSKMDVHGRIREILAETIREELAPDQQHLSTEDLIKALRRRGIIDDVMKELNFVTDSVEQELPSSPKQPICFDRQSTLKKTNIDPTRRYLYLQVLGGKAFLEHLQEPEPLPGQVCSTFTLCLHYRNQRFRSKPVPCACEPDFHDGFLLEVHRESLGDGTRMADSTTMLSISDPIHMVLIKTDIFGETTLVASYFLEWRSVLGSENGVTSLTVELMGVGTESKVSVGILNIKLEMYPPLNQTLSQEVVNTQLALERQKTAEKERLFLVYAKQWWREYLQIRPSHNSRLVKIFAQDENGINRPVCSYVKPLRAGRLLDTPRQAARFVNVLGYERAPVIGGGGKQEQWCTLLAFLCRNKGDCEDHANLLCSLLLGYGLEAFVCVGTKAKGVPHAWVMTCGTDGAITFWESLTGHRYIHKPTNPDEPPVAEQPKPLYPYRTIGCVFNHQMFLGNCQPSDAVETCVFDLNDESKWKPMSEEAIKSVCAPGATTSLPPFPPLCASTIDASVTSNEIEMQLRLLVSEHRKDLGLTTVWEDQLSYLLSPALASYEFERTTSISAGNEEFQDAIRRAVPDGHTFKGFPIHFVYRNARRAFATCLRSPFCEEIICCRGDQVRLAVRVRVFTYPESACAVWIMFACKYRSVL
# B5: Carbonic anhydrase-related protein (Homo sapiens), P35219 (parent)
# chain: MADLSFIEDTVAFPEKEEDEEEEEEGVEWGYEEGVEWGLVFPDANGEYQSPINLNSREARYDPSLLDVRLSPNYVVCRDCEVTNDGHTIQVILKSKSVLSGGPLPQGHEFELYEVRFHWGRENQRGSEHTVNFKAFPMELHLIHWNSTLFGSIDEAVGKPHGIAIIALFVQIGKEHVGLKAVTEILQDIQYKGKSKTIPCFNPNTLLPDPLLRDYWVYEGSLTIPPCSEGVTWILFRYPLTISQLQIEEFRRLRTHVKGAELVEGCDGILGDNFRPTQPLSDRVIRAAFQ
# partner: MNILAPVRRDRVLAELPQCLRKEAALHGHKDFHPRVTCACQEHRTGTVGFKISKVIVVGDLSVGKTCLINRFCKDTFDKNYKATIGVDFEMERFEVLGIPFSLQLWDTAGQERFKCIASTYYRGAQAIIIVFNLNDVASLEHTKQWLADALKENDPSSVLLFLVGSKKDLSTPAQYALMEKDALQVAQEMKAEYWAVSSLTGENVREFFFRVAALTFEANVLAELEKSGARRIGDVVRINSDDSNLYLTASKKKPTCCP
# B6: Adiponectin (Homo sapiens), Q15848 (parent)
# chain: MLLLGAVLLLLALPGHDQETTTQGPGVLLPLPKGACTGWMAGIPGHPGHNGAPGRDGRDGTPGEKGEKGDPGLIGPKGDIGETGVPGAEGPRGFPGIQGRKGEPGEGAYVYRSAFSVGLETYVTIPNMPIRFTKIFYNQQNHYDGSTGKFHCNIPGLYYFAYHITVYMKDVKVSLFKKDKAMLFTYDQYQENNVDQASGSVLLHLEVGDQVWLQVYGEGERNGLYADNDNDSTFTGFLLYHDTN
# partner: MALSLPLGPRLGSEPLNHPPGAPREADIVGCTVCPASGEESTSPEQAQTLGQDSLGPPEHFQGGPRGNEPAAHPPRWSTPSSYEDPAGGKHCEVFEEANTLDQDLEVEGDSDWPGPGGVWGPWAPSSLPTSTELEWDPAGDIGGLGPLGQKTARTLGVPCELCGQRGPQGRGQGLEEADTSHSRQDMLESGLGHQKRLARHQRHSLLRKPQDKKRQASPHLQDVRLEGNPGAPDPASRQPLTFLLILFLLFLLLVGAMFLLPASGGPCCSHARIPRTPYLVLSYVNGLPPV
# Variants of: B1
# Conditions: with MID2, Q9UJV3-2
row,effect of a mutation on the interaction,Variant
1,with no effect,P493S
2,with no effect,T494M
3,with no effect,A489D

# Variants of: B2
# Conditions: with tri23_human TRIM23, P36406
row,effect of a mutation on the interaction,Variant
1,disrupting interaction strength,W94R

# Variants of: B3
# Conditions: with coe1_human EBF1, Q9UH73
row,effect of a mutation on the interaction,Variant
1,disrupting interaction strength,W94R

# Variants of: B4
# Conditions: with cep76_human CEP76, Q8TAP6
row,effect of a mutation on the interaction,Variant
1,disrupting interaction strength,F94S
2,disrupting interaction strength,L69P
3,disrupting interaction strength,V36M

# Variants of: B5
# Conditions: with rab34_human RAB34, Q9BZG1
row,effect of a mutation on the interaction,Variant
1,disrupting interaction strength,S100P

# Variants of: B6
# Conditions: with SYNE4, Q8N205-2
row,effect of a mutation on the interaction,Variant
1,with no effect,Y111H
2,with no effect,I164T
